B1: E3 ubiquitin-protein ligase MARCHF5 (Homo sapiens), Q9NX47 (parent)
chain: MPDQALQQMLDRSCWVCFATDEDDRTAEWVRPCRCRGSTKWVHQACLQRWVDEKQRGNSTARVACPQCNAEYLIVFPKLGPVVYVLDLADRLISKACPFAAAGIMVGSIYWTAVTYGAVTVMQVVGHKEGLDVMERADPLFLLIGLPTIPVMLILGKMIRWEDYVLRLWRKYSNKLQILNSIFPGIGCPVPRIPAEANPLADHVSATRILCGALVFPTIATIVGKLMFSSVNSNLQRTILGGIAFVAIKGAFKVYFKQQQYLRQAHRKILNYPEQEEA
partner: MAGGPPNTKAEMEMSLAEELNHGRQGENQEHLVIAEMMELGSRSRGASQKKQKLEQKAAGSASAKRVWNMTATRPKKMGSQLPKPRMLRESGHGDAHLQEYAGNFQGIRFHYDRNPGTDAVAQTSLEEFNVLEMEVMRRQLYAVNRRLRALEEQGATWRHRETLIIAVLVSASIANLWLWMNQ
B2: Nuclear protein AMMECR1 (Homo sapiens), Q9Y4X0 (parent)
chain: MAAGCCGVKKQKLSSSPPSGSGGGGGASSSSHCSGESQCRAGELGLGGAGTRLNGLGGLTGGGSGSGCTLSPPQGCGGGGGGIALSPPPSCGVGTLLSTPAAATSSSPSSSSAASSSSPGSRKMVVSAEMCCFCFDVLYCHLYGYQQPRTPRFTNEPYPLFVTWKIGRDKRLRGCIGTFSAMNLHSGLREYTLTSALKDSRFPPMTRDELPRLFCSVSLLTNFEDVCDYLDWEVGVHGIRIEFINEKGSKRTATYLPEVAKEQGWDHIQTIDSLLRKGGYKAPITNEFRKTIKLTRYRSEKMTLSYAEYLAHRQHHHFQNGIGHPLPPYNHYS
partner: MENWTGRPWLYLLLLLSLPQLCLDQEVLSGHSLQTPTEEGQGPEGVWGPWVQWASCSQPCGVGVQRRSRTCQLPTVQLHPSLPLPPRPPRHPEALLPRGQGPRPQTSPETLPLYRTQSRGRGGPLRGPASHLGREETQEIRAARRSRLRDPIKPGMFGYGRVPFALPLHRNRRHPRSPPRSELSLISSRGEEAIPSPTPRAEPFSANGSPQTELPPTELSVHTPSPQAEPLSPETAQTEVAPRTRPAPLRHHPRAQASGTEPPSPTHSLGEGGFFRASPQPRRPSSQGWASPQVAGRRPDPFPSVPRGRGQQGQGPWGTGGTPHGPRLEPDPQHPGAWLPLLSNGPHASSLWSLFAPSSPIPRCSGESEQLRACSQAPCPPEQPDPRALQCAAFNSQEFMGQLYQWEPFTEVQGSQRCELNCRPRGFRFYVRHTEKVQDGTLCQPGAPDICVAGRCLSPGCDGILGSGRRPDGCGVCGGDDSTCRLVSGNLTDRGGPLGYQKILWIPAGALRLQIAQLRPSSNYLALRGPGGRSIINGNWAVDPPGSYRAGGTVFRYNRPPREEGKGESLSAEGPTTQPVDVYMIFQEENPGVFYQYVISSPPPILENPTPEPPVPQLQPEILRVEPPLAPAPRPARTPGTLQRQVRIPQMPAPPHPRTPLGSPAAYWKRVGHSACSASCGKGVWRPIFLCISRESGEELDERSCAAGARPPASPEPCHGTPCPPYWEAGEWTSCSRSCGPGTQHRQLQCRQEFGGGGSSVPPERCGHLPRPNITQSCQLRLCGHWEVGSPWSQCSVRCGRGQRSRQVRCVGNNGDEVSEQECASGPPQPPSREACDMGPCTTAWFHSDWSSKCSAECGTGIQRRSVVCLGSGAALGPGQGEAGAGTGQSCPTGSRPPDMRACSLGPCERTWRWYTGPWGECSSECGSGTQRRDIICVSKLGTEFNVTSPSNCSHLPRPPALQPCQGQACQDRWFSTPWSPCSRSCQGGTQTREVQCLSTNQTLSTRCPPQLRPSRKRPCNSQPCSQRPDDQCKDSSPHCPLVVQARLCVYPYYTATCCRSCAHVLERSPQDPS
B3: Tuftelin-interacting protein 11 (Homo sapiens), Q9UBB9 (parent)
chain: MSLSHLYRDGEGRIDDDDDERENFEITDWDLQNEFNPNRQRHWQTKEEATYGVWAERDSDDERPSFGGKRARDYSAPVNFISAGLKKGAAEEAELEDSDDEEKPVKQDDFPKDFGPRKLKTGGNFKPSQKGFAGGTKSFMDFGSWERHTKGIGQKLLQKMGYVPGRGLGKNAQGIINPIEAKQRKGKGAVGAYGSERTTQSMQDFPVVDSEEEAEEEFQKELSQWRKDPSGSKKKPKYSYKTVEELKAKGRISKKLTAPQKELSQVKVIDMTGREQKVYYSYSQISHKHNVPDDGLPLQSQQLPQSGKEAKAPGFALPELEHNLQLLIDLTEQEIIQNDRQLQYERDMVVNLFHELEKMTEVLDHEERVISNLSKVLEMVEECERRMQPDCSNPLTLDECARIFETLQDKYYEEYRMSDRVDLAVAIVYPLMKEYFKEWDPLKDCTYGTEIISKWKSLLENDQLLSHGGQDLSADAFHRLIWEVWMPFVRNIVTQWQPRNCDPMVDFLDSWVHIIPVWILDNILDQLIFPKLQKEVENWNPLTDTVPIHSWIHPWLPLMQARLEPLYSPIRSKLSSALQKWHPSDSSAKLILQPWKDVFTPGSWEAFMVKNIVPKLGMCLGELVINPHQQHMDAFYWVIDWEGMISVSSLVGLLEKHFFPKWLQVLCSWLSNSPNYEEITKWYLGWKSMFSDQVLAHPSVKDKFNEALDIMNRAVSSNVGAYMQPGARENIAYLTHTERRKDFQYEAMQERREAENMAQRGIGVAASSVPMNFKDLIETKAEEHNIVFMPVIGKRHEGKQLYTFGRIVIYIDRGVVFVQGEKTWVPTSLQSLIDMAK
partner: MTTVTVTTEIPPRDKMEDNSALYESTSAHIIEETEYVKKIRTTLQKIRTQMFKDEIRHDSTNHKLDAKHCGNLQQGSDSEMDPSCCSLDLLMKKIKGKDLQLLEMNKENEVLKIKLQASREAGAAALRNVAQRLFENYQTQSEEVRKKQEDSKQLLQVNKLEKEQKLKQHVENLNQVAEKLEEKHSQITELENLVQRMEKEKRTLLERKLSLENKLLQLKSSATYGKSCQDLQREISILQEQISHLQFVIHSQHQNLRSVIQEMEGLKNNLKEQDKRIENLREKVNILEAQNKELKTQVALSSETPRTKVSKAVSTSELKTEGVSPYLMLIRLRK
B4: Phosphatidylserine lipase ABHD16A (Homo sapiens), O95870 (parent)
chain: MAKLLSCVLGPRLYKIYRERDSERAPASVPETPTAVTAPHSSSWDTYYQPRALEKHADSILALASVFWSISYYSSPFAFFYLYRKGYLSLSKVVPFSHYAGTLLLLLAGVACLRGIGRWTNPQYRQFITILEATHRNQSSENKRQLANYNFDFRSWPVDFHWEEPSSRKESRGGPSRRGVALLRPEPLHRGTADTLLNRVKKLPCQITSYLVAHTLGRRMLYPGSVYLLQKALMPVLLQGQARLVEECNGRRAKLLACDGNEIDTMFVDRRGTAEPQGQKLVICCEGNAGFYEVGCVSTPLEAGYSVLGWNHPGFAGSTGVPFPQNEANAMDVVVQFAIHRLGFQPQDIIIYAWSIGGFTATWAAMSYPDVSAMILDASFDDLVPLALKVMPDSWRGLVTRTVRQHLNLNNAEQLCRYQGPVLLIRRTKDEIITTTVPEDIMSNRGNDLLLKLLQHRYPRVMAEEGLRVVRQWLEASSQLEEASIYSRWEVEEDWCLSVLRSYQAEHGPDFPWSVGEDMSADGRRQLALFLARKHLHNFEATHCTPLPAQNFQMPWHL
partner: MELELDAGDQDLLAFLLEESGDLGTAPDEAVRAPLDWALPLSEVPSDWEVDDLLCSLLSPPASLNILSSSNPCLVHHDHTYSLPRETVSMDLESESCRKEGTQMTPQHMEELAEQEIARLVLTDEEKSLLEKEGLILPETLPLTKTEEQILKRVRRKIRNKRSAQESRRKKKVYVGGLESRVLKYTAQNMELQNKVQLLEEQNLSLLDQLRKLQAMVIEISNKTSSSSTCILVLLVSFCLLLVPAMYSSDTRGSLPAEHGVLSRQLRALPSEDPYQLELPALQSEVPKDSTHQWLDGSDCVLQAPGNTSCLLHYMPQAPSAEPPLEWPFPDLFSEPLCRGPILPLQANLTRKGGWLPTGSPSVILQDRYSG
B5: ATP synthase mitochondrial F1 complex assembly factor 2 (Homo sapiens), Q8N5M1 (parent)
chain: MWRSCLRLRDGGRRLLNRPAGGPSASMSPGPTIPSPARAYAPPTERKRFYQNVSITQGEGGFEINLDHRKLKTPQAKLFTVPSEALAIAVATEWDSQQDTIKYYTMHLTTLCNTSLDNPTQRNKDQLIRAAVKFLDTDTICYRVEEPETLVELQRNEWDPIIEWAEKRYGVEISSSTSIMGPSIPAKTREVLVSHLASYNTWALQGIEFVAAQLKSMVLTLGLIDLRLTVEQAVLLSRLEEEYQIQKWGNIEWAHDYELQELRARTAAGTLFIHLCSESTTVKHKLLKE
partner: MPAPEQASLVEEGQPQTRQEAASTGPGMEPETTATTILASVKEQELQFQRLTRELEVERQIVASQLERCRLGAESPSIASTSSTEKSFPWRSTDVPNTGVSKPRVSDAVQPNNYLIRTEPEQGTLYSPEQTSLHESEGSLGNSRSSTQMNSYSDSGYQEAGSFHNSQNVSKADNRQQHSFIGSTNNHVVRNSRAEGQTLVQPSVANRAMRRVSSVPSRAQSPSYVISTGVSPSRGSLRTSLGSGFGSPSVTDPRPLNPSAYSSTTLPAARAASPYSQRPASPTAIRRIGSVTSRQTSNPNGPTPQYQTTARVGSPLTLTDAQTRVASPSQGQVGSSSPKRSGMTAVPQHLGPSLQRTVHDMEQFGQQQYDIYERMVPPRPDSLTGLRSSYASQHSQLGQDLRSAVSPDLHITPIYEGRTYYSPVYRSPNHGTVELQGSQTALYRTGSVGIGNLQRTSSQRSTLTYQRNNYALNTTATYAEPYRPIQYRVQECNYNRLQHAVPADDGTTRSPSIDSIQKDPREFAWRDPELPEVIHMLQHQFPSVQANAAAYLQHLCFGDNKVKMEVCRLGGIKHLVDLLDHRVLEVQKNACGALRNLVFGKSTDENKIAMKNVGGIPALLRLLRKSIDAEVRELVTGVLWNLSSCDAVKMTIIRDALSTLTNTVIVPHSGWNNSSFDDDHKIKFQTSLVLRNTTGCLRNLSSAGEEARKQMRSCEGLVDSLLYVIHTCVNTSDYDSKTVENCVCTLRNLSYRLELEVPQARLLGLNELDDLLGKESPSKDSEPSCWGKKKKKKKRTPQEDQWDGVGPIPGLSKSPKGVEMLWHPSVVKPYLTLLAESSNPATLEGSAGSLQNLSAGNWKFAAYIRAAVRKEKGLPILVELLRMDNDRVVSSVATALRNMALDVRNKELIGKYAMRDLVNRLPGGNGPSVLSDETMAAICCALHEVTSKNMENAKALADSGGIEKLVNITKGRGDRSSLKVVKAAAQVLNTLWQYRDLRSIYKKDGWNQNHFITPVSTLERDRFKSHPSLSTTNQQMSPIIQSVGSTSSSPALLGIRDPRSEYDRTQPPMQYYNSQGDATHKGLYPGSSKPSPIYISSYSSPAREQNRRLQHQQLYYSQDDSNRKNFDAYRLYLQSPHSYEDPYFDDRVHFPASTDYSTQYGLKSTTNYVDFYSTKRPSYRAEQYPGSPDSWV

Variants of: B1
Details: with fate1_human FATE1, Q969F0

Row | effect of a mutation on the interaction | Variant
1 | with no effect | D202N

Variants of: B2
Details: with atl4_human ADAMTSL4, Q6UY14

Row | effect of a mutation on the interaction | Variant
2 | with no effect | R207G

Variants of: B3
Details: with ccd68_human CCDC68, Q9H2F9

Row | effect of a mutation on the interaction | Variant
3 | with no effect | S688L
4 | with no effect | R8Q

Variants of: B4
Details: with creb3_human CREB3, O43889

Row | effect of a mutation on the interaction | Variant
5 | with no effect | R184L

Variants of: B5
Details: with pkp4_human PKP4, Q99569

Row | effect of a mutation on the interaction | Variant
6 | with no effect | E241G
